Experiment [1] addresses T1, human full-length VWF (human, UniProt P04275 764-2813). Briefly: SPR, Biacore T200, antibody captured on Protein A, full-length VWF as analyte, single-cycle kinetics.
Experimental: (§1) Antibodies were captured on Protein A sensor chip. The system was purged using running buffer (10 mM HEPES pH 7.4, 300 mM NaCl, 3 mM EDTA, 0.05% P20) and a series S Protein A chip was docked in the Biacore T200. The surface was conditioned with 10 mM glycine-HCl pH 1.5 regeneration solution (3 injections). Each antibody was diluted to ˜0.8 μg/ml in running buffer to capture ˜350 RU on flow cells 2, 3 and 4 (flow cell 1 used as in-line reference cell). Single-cycle kinetic analysis of human full-length VWF binding to antibodies was performed using the following parameters:
For experiment [2], the target named is T1, human full-length VWF. Briefly: SPR Biacore T200, antibody captured on Protein A chip, full-length VWF as analyte, single-cycle kinetics.
Experimental: as §1
Experiment [3] deals with T1, human full-length VWF. Briefly: SPR, Biacore T200, antibody captured on Protein A, full-length VWF as analyte, single-cycle kinetics. This is another data set of the same source.

Where two headings read alike, the source gives them in different places.

B1: 4-H3_H2_L1 (antibody, human IgG1, kappa)
heavy: not shown
light: DYQMTQSPSSLSASVGDRVTITCLASEDIASGISWYQQKPGKAPKLLIYGASNLESGVPSRFSGSGSGTDYTLTISSLQPEDFATYYCLGGYSFSSNGLTFGGGTKVEIKTVAAPSVFIFPPSDEQLKSGTASVVCLLNNFYPREAKVQWKVDNALQSGNSQESVTEQDSKDSTYSLSSTLTLSKADYEKHKVYACEVTHQGLSSPVTKSFNRGEC
notes: humanised, human IgG1 kappa
In the experiment with human full-length VWF [1], B1 had a Kd of 4.53 pM, a koff of 1.36e-07 s⁻¹ and a kon of 29900 M⁻¹ s⁻¹. This molecule displayed a Kd in the experiment with human full-length VWF [2] of less than 1000 pM.

B2: 4-H3_H2_L0 (antibody, human IgG1, kappa)
heavy: not shown
light: DIQMTQSPSSLSASVGDRVTITCLASEDIASGISWYQQKPGKAPKLLIYGASNLESGVPSRFSGSGSGTDFTLTISSLQPEDFATYYCLGGYSFSSNGLTFGGGTKVEIKTVAAPSVFIFPPSDEQLKSGTASVVCLLNNFYPREAKVQWKVDNALQSGNSQESVTEQDSKDSTYSLSSTLTLSKADYEKHKVYACEVTHQGLSSPVTKSFNRGEC
notes: humanised, human IgG1 kappa
In the experiment with human full-length VWF [1], B2 displayed a Kd of 27.3 pM, a koff of 9.13e-07 s⁻¹ and a kon of 33500 M⁻¹ s⁻¹. Moreover, the equilibrium dissociation constant (Kd) with human full-length VWF [2] is less than 1000 pM.

B3: 4-H3_H4_L1 (antibody, human IgG1, kappa, V domains shown)
VH: QVQLVESGGGVVQPGRSLRLSCAASGIDLTSNAMNWVRQAPGKGLEWVAGIYGHDTSYYAAWAKGRFTISRDNSKNTLYLQMNSLRAEDTATYFCARGFIYFDIWGQGTLVTVSS
VL: DYQMTQSPSSLSASVGDRVTITCLASEDIASGISWYQQKPGKAPKLLIYGASNLESGVPSRFSGSGSGTDYTLTISSLQPEDFATYYCLGGYSFSSNGLTFGGGTKVEIKT
notes: humanised, human IgG1 kappa
Take B3: in the experiment with human full-length VWF [1], the Kd was determined as 0.14 pM, the koff is 6.25e-09 s⁻¹ and the kon came to 44500 M⁻¹ s⁻¹. This molecule returned a Kd in the experiment with human full-length VWF [2] of less than 1000 pM.

B4: 1-D5_H2_L1 (antibody, human IgG1, kappa, V domains shown)
VH: QQQLVESGGGVVQPGRSLRLSCAASGFSLNNYIMGWVRQAPGKGLEYIGIISTGGSTYYASWAKGRFTISRDSNTMYLQMNSLRAEDTATYFCARGGSSAGAGFNIWGQGTLVTVSS
VL: DIQMTQSPSSLSASVGDRVTITCQASQSINSGLAWYQQKPGKAPKRLIYKASTLASGVPSRFSGSGSGTDFTLTISSLQPEDFATYYCQSYHYISANGATFGGGTKVEIKT
notes: humanised, human IgG1 kappa
In the experiment with human full-length VWF [1], B4 displayed a Kd of 38 pM, a koff of 1.13e-05 s⁻¹ and a kon of 298000 M⁻¹ s⁻¹. Moreover, the Kd with human full-length VWF [2] was less than 1000 pM.

B5: 1-D5_H1_L1 (antibody, human IgG1, kappa, V domains shown)
VH: QVQLVESGGGVVQPGRSLRLSCAASGFSLNNYIMGWVRQAPGKGLEWVAIISTGGSTYYASWAKGRFTISRDNSKNTLYLQMNSLRAEDTAVYYCARGGSSAGAGFNIWGQGTLVTVSS
VL: DIQMTQSPSSLSASVGDRVTITCQASQSINSGLAWYQQKPGKAPKRLIYKASTLASGVPSRFSGSGSGTDFTLTISSLQPEDFATYYCQSYHYISANGATFGGGTKVEIKT
notes: humanised, human IgG1 kappa
In the experiment with human full-length VWF [1], B5 came in with a Kd of 0.0946 pM, a koff of 6.72e-09 s⁻¹ and a kon of 71000 M⁻¹ s⁻¹. This molecule also gave a Kd in the experiment with human full-length VWF [2] of less than 1000 pM.

B6: 1-D5_H0_L0 (antibody, human IgG1, kappa, V domains shown)
VH: QVQLVESGGGVVQPGRSLRLSCAASGFTFSNYIMGWVRQAPGKGLEWVAIISTGGSTYYASWAKGRFTISRDNSKNTLYLQMNSLRAEDTAVYYCARGGSSAGAGFNIWGQGTLVTVSS
VL: DIQMTQSPSSLSASVGDRVTITCQASQSINSGLAWYQQKPGKAPKLLIYKASTLASGVPSRFSGSGSGTDFTLTISSLQPEDFATYYCQSYHYISANGATFGGGTKVEIKT
notes: humanised, human IgG1 kappa
In the case of B6, in the experiment with human full-length VWF [1], the Kd is 0.15 pM, the koff came to 1.13e-08 s⁻¹ and the kon came out at 75200 M⁻¹ s⁻¹. The molecule also had a Kd with human full-length VWF [2] of less than 1000 pM.

B7: 1-D5_H2_L0 (antibody, human IgG1, kappa, V domains shown)
VH: QQQLVESGGGVVQPGRSLRLSCAASGFSLNNYIMGWVRQAPGKGLEYIGIISTGGSTYYASWAKGRFTISRDSNTMYLQMNSLRAEDTATYFCARGGSSAGAGFNIWGQGTLVTVSS
VL: DIQMTQSPSSLSASVGDRVTITCQASQSINSGLAWYQQKPGKAPKLLIYKASTLASGVPSRFSGSGSGTDFTLTISSLQPEDFATYYCQSYHYISANGATFGGGTKVEIKT
notes: humanised, human IgG1 kappa
Turning to B7, in the experiment with human full-length VWF [1], binding was put at a Kd of 7.66 pM, the koff worked out at 1.06e-06 s⁻¹ and the association rate constant (kon) came to 138000 M⁻¹ s⁻¹. This molecule also came in with a Kd in the experiment with human full-length VWF [2] of less than 1000 pM.

B8: 1-D5_H1_L0 (antibody, human IgG1, kappa, V domains shown)
VH: QVQLVESGGGVVQPGRSLRLSCAASGFSLNNYIMGWVRQAPGKGLEWVAIISTGGSTYYASWAKGRFTISRDNSKNTLYLQMNSLRAEDTAVYYCARGGSSAGAGFNIWGQGTLVTVSS
VL: DIQMTQSPSSLSASVGDRVTITCQASQSINSGLAWYQQKPGKAPKLLIYKASTLASGVPSRFSGSGSGTDFTLTISSLQPEDFATYYCQSYHYISANGATFGGGTKVEIKT
notes: humanised, human IgG1 kappa
Consider B8, for which, in the experiment with human full-length VWF [1], the affinity, expressed as Kd, was 1.6 pM; the koff was determined as 1.25e-07 s⁻¹; the kon amounted to 77900 M⁻¹ s⁻¹. Also, in the experiment with human full-length VWF [2], the Kd is less than 1000 pM.

B9: 1-D5_H0_L1 (antibody, human IgG1, kappa, V domains shown)
VH: QVQLVESGGGVVQPGRSLRLSCAASGFTFSNYIMGWVRQAPGKGLEWVAIISTGGSTYYASWAKGRFTISRDNSKNTLYLQMNSLRAEDTAVYYCARGGSSAGAGFNIWGQGTLVTVSS
VL: DIQMTQSPSSLSASVGDRVTITCQASQSINSGLAWYQQKPGKAPKRLIYKASTLASGVPSRFSGSGSGTDFTLTISSLQPEDFATYYCQSYHYISANGATFGGGTKVEIKT
notes: humanised, human IgG1 kappa
In the experiment with human full-length VWF [1], B9 displayed a Kd of 1.77 pM, a koff of 2.99e-07 s⁻¹ and a kon of 169000 M⁻¹ s⁻¹. For the same molecule, in the experiment with human full-length VWF [2], the Kd was less than 1000 pM.

B10: 3-H9_H2_L0 (antibody, human IgG1, kappa, V domains shown)
VH: QQLVESGGGVVQPGRSLRLSCAASGFSLSNYDMSWVRQAPGKGLEWIGSIHAIGITYYANWAEGRFTISRDKNTVYLQMNSLRAEDTATYFCARGLVDLNMWGQGTLVTVSS
VL: DIQMTQSPSSLSASVGDRVTITCQSSQSVYSNNLLSWYQQKPGKAPKLLIYDASTLESGVPSRFSGSGSGTDFTLTISSLQPEDFATYYCQGSYYSSGWYNTFGGGTKVEIKT
notes: humanised, human IgG1 kappa
For the molecule B10, in the experiment with human full-length VWF [3], the affinity, expressed as Kd, was 11.2 pM; the koff stood at 8.74e-07 s⁻¹; the kon stood at 78100 M⁻¹ s⁻¹. In the experiment with human full-length VWF [2], this molecule had a Kd of less than 1000 pM.

B11: 3-H9_H1_L0 (antibody, human IgG1, kappa, V domains shown)
VH: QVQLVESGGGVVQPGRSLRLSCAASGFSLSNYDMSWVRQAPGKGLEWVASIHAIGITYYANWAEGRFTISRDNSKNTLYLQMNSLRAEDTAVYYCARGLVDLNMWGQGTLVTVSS
VL: DIQMTQSPSSLSASVGDRVTITCQSSQSVYSNNLLSWYQQKPGKAPKLLIYDASTLESGVPSRFSGSGSGTDFTLTISSLQPEDFATYYCQGSYYSSGWYNTFGGGTKVEIKT
notes: humanised, human IgG1 kappa
As to B11, in the experiment with human full-length VWF [3], the Kd worked out at 15.6 pM, the koff was determined as 2.84e-07 s⁻¹ and the kon was 18200 M⁻¹ s⁻¹. Further, the Kd with human full-length VWF [2] was less than 1000 pM.

B12: 3-H9_H0_L0 (antibody, human IgG1, kappa, V domains shown)
VH: QVQLVESGGGVVQPGRSLRLSCAASGFTFSNYDMSWVRQAPGKGLEWVASIHAIGITYYANWAEGRFTISRDNSKNTLYLQMNSLRAEDTAVYYCARGLVDLNMWGQGTLVTVSS
VL: DIQMTQSPSSLSASVGDRVTITCQSSQSVYSNNLLSWYQQKPGKAPKLLIYDASTLESGVPSRFSGSGSGTDFTLTISSLQPEDFATYYCQGSYYSSGWYNTFGGGTKVEIKT
notes: humanised, human IgG1 kappa
In the experiment with human full-length VWF [3], B12 showed a Kd of 1.05 pM, a koff of 8.46e-08 s⁻¹ and a kon of 80900 M⁻¹ s⁻¹. Moreover, the Kd with human full-length VWF [2] was less than 1000 pM.

B13: 1-G5_H2_L1 (antibody, human IgG1, kappa)
heavy: not shown
light: DPQMTQSPSSLSASVGDRVTITCQASQSVYNNNYLSWYQQKPGKAPKLLIYDASTLASGVPSRFSGSGSGTDFTLTISSLQPEDFATYYCQGSYYSGGWDTAFGGGTKVEIKTVAAPSVFIFPPSDEQLKSGTASVVCLLNNFYPREAKVQWKVDNALQSGNSQESVTEQDSKDSTYSLSSTLTLSKADYEKHKVYACEVTHQGLSSPVTKSFNRGEC
notes: humanised, human IgG1 kappa
In the case of B13, in the experiment with human full-length VWF [3], binding was put at a Kd of 0.174 pM, the koff was 2.25e-08 s⁻¹ and the kon was 129000 M⁻¹ s⁻¹. The dissociation constant Kd with human full-length VWF [2] was less than 1000 pM.

B14: 1-G5_H1_L1 (antibody, human IgG1, kappa)
heavy: not shown
light: DPQMTQSPSSLSASVGDRVTITCQASQSVYNNNYLSWYQQKPGKAPKLLIYDASTLASGVPSRFSGSGSGTDFTLTISSLQPEDFATYYCQGSYYSGGWDTAFGGGTKVEIKTVAAPSVFIFPPSDEQLKSGTASVVCLLNNFYPREAKVQWKVDNALQSGNSQESVTEQDSKDSTYSLSSTLTLSKADYEKHKVYACEVTHQGLSSPVTKSFNRGEC
notes: humanised, human IgG1 kappa
B14: in the experiment with human full-length VWF [3], the Kd is 14.8 pM, the koff amounted to 6.03e-07 s⁻¹ and the kon was found to be 40700 M⁻¹ s⁻¹. This molecule also registered an equilibrium dissociation constant (Kd) with human full-length VWF [2] of less than 1000 pM.

B15: 1-G5_H0_L1 (antibody, human IgG1, kappa)
heavy: not shown
light: DPQMTQSPSSLSASVGDRVTITCQASQSVYNNNYLSWYQQKPGKAPKLLIYDASTLASGVPSRFSGSGSGTDFTLTISSLQPEDFATYYCQGSYYSGGWDTAFGGGTKVEIKTVAAPSVFIFPPSDEQLKSGTASVVCLLNNFYPREAKVQWKVDNALQSGNSQESVTEQDSKDSTYSLSSTLTLSKADYEKHKVYACEVTHQGLSSPVTKSFNRGEC
notes: humanised, human IgG1 kappa
In the experiment with human full-length VWF [3], B15 displayed a Kd of 12.9 pM, a dissociation rate constant (koff) of 1.02e-06 s⁻¹ and a kon of 79000 M⁻¹ s⁻¹. This molecule showed a Kd in the experiment with human full-length VWF [2] of less than 1000 pM.

B16: 1-G5_H0_L0 (antibody, human IgG1, kappa)
heavy: not shown
light: DIQMTQSPSSLSASVGDRVTITCQASQSVYNNNYLSWYQQKPGKAPKLLIYDASTLASGVPSRFSGSGSGTDFTLTISSLQPEDFATYYCQGSYYSGGWDTAFGGGTKVEIKTVAAPSVFIFPPSDEQLKSGTASVVCLLNNFYPREAKVQWKVDNALQSGNSQESVTEQDSKDSTYSLSSTLTLSKADYEKHKVYACEVTHQGLSSPVTKSFNRGEC
notes: humanised, human IgG1 kappa
In the experiment with human full-length VWF [3], B16 registered a Kd of 1.1 pM, a koff of 9.05e-08 s⁻¹ and a kon of 82400 M⁻¹ s⁻¹. Moreover, the Kd with human full-length VWF [2] was less than 1000 pM.

B17: 1-G5_H2_L0 (antibody, human IgG1, kappa)
heavy: not shown
light: DIQMTQSPSSLSASVGDRVTITCQASQSVYNNNYLSWYQQKPGKAPKLLIYDASTLASGVPSRFSGSGSGTDFTLTISSLQPEDFATYYCQGSYYSGGWDTAFGGGTKVEIKTVAAPSVFIFPPSDEQLKSGTASVVCLLNNFYPREAKVQWKVDNALQSGNSQESVTEQDSKDSTYSLSSTLTLSKADYEKHKVYACEVTHQGLSSPVTKSFNRGEC
notes: humanised, human IgG1 kappa
In the experiment with human full-length VWF [3], B17 registered a Kd of 13 pM, a koff of 3.9e-07 s⁻¹ and a kon of 29900 M⁻¹ s⁻¹. In the experiment with human full-length VWF [2], this molecule gave a Kd of less than 1000 pM.

(Values after patent publication US20240228660A1 (IP2IPO INNOVATIONS, published 2024).)
